Experiment [1] has as its target T1, PDE6 (lower-affinity site) (Bos taurus, UniProt P11541).
T1 chain 1: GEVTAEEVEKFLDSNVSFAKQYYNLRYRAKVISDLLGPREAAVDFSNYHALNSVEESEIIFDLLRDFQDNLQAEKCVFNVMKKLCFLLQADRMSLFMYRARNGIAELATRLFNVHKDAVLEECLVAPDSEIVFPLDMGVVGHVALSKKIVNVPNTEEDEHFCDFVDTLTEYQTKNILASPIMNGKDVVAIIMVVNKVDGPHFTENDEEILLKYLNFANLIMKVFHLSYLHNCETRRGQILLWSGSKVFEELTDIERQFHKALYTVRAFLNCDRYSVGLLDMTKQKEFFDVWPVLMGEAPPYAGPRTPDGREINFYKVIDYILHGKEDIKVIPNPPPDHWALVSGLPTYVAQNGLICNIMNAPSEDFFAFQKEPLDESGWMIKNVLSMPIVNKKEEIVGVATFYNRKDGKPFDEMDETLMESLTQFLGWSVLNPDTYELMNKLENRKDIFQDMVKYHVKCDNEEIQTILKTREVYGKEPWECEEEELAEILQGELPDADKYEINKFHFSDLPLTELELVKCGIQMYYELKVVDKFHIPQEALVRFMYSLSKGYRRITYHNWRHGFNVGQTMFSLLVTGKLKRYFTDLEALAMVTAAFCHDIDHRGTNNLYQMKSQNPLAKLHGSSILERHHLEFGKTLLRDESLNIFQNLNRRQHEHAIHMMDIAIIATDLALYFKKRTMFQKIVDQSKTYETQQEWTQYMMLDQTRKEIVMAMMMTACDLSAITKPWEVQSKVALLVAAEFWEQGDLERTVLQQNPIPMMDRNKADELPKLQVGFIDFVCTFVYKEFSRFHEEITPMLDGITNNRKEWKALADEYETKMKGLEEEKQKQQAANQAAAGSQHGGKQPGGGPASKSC
T1 chain 2: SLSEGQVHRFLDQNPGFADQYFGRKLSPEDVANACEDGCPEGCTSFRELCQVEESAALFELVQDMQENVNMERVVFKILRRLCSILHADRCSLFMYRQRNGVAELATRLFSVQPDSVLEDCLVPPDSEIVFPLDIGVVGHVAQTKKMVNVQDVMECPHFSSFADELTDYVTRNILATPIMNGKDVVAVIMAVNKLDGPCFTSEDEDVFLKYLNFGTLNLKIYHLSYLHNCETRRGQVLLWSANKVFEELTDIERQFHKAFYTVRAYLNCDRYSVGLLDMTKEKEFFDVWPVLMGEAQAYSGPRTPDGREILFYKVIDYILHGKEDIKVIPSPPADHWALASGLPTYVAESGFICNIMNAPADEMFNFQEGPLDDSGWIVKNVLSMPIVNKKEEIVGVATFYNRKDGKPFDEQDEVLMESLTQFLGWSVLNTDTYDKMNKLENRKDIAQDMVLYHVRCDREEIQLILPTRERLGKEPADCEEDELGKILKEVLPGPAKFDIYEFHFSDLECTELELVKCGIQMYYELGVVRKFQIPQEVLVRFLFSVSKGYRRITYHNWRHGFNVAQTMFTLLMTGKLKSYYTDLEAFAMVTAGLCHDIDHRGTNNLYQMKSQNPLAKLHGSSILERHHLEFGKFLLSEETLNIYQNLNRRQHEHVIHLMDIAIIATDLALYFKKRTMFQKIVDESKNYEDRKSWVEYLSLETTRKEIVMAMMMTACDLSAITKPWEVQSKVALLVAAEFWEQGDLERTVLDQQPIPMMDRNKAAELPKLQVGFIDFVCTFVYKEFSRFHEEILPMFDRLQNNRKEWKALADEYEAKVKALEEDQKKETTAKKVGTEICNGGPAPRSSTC
The experiment is described as follows: activity titration.

Experiment [2] deals with T2, PDE6 (higher-affinity site) (Bos taurus, UniProt P11541).
T2 chain 1: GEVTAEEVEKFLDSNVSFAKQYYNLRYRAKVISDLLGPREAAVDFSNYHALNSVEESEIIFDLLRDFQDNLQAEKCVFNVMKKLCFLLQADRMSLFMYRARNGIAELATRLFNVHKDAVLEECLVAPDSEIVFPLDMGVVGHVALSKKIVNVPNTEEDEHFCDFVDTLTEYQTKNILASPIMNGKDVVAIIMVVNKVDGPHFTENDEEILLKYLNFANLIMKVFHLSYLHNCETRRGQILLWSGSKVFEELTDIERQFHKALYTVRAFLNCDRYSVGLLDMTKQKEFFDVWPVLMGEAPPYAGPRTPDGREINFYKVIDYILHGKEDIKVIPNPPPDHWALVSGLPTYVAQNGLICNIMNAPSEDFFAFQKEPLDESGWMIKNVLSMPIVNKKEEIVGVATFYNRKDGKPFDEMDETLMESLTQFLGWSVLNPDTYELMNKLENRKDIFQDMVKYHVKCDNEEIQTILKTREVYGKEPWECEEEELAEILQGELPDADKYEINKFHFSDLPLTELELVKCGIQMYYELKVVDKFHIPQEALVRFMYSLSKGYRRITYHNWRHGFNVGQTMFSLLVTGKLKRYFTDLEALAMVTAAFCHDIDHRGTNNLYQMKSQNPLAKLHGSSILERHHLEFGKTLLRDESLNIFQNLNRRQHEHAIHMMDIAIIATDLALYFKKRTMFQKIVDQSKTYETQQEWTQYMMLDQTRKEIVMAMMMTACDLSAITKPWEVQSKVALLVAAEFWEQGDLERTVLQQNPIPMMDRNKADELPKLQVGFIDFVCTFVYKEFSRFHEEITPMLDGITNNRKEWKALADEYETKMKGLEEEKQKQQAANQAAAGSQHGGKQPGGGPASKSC
T2 chain 2: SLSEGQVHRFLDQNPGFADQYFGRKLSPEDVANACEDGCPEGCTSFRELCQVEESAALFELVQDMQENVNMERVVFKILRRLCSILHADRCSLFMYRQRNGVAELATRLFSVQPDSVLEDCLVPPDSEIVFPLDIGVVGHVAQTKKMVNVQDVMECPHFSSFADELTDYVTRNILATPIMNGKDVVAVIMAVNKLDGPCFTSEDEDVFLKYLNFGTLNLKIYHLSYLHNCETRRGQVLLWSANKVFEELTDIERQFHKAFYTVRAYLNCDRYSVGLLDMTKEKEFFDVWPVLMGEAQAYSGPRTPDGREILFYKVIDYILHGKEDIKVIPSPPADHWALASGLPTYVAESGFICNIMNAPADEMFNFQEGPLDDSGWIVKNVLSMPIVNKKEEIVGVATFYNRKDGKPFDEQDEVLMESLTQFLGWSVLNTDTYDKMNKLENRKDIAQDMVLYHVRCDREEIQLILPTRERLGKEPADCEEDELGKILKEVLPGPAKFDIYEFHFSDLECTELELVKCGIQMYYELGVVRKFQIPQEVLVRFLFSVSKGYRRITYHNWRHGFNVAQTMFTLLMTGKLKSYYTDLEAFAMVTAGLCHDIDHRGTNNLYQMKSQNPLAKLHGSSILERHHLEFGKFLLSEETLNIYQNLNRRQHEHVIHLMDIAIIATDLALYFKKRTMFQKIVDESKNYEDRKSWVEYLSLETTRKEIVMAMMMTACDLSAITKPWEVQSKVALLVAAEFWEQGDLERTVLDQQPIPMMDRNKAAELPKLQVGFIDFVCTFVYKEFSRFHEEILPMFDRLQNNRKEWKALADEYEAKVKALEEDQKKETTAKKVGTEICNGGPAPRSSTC
Description: activity titration.

B1: PrBP/δ (protein)
chain: MSAKDERAREILRGFKLNWMNLRDAETGKILWQGTEDLSVPGVEHEARVPKKILKCKAVSRELNFSSTEQMEKFRLEQKVYFKGQCLEEWFFEFGFVIPNSTNTWQSLIEAAPESQMMPASVLTGNVIIETKFFDDDLLVSTSRVRLFYV
In the case of B1, the Kd came out at 700 nM in experiment [1] and 40 nM in experiment [2].

The values are drawn from publication PMC5758567 (2018).
